From US20030199679A1

Tests used:
[1] = target: recombinant human TNF-alpha (human) (UniProt P01375); test: Scatchard analysis, 125I-TNF and unlabelled TNF in solution, antibody taken out with anti-IgG agarose beads
[2] = target: recombinant human TNF-alpha (human) (UniProt P01375); test: standard assay of binding to human TNFα

- Kd [1]: 0.14 nM
- Kd [2]: 0.087 nM
Substance: CDP571 (CDR-grafted CB0010, grafted light chain gEU and grafted heavy chain 2hEUg) (antibody)
